Reference: patent US20160229915A1 (Chugai, published 2016)

Tests used:
[1] = target: T1, mouse FcgRII extracellular domain, C-terminal His tag (mouse, UniProt P08101 30-210); experiment: SPR (Biacore); binding activity relative to naturally occurring mIgG1
T1 construct: extracellular domain; also called mFcgRII; mFcγRII; not shown: C-terminal His tag
T1 sequence (looked up): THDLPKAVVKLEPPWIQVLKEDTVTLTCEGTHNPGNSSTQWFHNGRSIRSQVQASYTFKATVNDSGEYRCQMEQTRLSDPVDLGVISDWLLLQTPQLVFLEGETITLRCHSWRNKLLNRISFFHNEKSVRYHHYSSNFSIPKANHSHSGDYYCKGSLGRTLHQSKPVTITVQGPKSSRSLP
Protocol: (§1) The two types of bispecific antibodies (MRAH-mIgG1mP3/MRAL-mk1//H54-mIgG1mN3/L28-mk1 and MRAH-mIgG1mP4/MRAL-mk1//H54-mIgG1mN4/L28-mk1) prepared by mouse IgG-type Fab arm exchange were tested for their binding to mouse FcgR and mouse FcRn according to Reference Example 4-3. Also, MRAH-mIgG1/MRAL-mk1 was prepared according to Reference Example 1 and assayed as a control.

[2] = target: T2, mouse FcgRIII extracellular domain, C-terminal His tag (mouse, UniProt P08508 31-215); experiment: as above
T2 construct: extracellular domain; also called mFcgRIII; mFcγRIII; not shown: C-terminal His tag
T2 sequence (looked up): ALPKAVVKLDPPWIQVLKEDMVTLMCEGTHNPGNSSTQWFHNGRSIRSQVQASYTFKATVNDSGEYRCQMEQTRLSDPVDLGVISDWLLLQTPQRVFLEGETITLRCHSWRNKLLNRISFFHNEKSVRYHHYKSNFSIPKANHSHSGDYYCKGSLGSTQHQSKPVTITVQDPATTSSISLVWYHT
Protocol: as §1

[3] = target: T1, mouse FcgRII extracellular domain, …; experiment: SPR (Biacore), antibody captured on chip, His-tagged mFcgR extracellular domain as analyte, 25 C
Protocol: as §1

[4] = target: T2, mouse FcgRIII extracellular domain, …; experiment: as above
Protocol: as §1

[5] = target: T3, mouse FcgRI extracellular domain, C-terminal His tag (mouse, UniProt P26151 25-297); experiment: SPR (Biacore), antibody captured on chip, mFcgR extracellular domain as analyte
T3 construct: extracellular domain; also called mFcgRI; mFcγRI; not shown: C-terminal His tag
T3 sequence (looked up): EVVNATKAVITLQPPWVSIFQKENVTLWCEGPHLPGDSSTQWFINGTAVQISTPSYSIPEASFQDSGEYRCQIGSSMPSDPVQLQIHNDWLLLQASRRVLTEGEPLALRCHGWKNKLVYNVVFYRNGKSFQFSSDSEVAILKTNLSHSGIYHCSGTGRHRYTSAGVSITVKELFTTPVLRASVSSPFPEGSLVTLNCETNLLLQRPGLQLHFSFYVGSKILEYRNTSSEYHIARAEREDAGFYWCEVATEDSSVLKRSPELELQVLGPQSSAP
Protocol: as §1

[6] = target: T4, mouse FcgRIV extracellular domain, C-terminal His tag (mouse, UniProt A0A0B4J1G0 21-203); experiment: as above
T4 construct: also called mFcgRIV; mFcγRIV
T4 sequence: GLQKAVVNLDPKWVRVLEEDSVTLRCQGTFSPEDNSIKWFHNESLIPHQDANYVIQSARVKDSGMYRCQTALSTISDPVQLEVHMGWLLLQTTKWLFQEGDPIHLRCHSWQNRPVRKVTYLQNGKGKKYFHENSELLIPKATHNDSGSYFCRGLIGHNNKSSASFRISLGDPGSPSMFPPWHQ
Protocol: as §1

mouse FcRn [7] = target: T5, mouse FcRn (mouse, UniProt Q61559 22-297); experiment: SPR (Biacore); relative to mIgG1
T5 construct: also called mFcRn
T5 sequence (Q61559 22-297): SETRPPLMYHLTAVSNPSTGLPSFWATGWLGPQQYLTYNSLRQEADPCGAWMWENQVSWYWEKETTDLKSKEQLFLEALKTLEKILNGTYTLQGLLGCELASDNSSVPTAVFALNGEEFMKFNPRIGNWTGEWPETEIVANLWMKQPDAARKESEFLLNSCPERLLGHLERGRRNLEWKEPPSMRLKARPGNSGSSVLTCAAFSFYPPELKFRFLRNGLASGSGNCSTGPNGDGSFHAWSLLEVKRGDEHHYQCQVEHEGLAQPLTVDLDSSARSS
Protocol: (§2) Next, the binding to mFcRn was evaluated according to Reference Example 4-4.
(§3) Kinetic analysis was conducted on mouse FcRn and each antibody using Biacore T100, Biacore T200, Biacore A100, and Biacore 4000 (GE Healthcare Japan Corp.). An appropriate amount of protein L (ACTIGEN) was immobilized on Sensor Chip CM4 (GE Healthcare Japan Corp.) by the amine coupling method. The antibody of interest was captured onto the chip. Next, a diluted FcRn solution or a running buffer (as a control solution) was injected thereto so that the mouse FcRn was allowed to interact with the antibody captured on the sensor chip. The running buffer used was 50 mmol/L sodium phosphate, 150 mmol/L NaCl, and 0.05% (w/v) Tween 20 (pH 6.0), and each buffer was also used for diluting FcRn. 10 mmol/L glycine-HCl (pH 1.5) was used to regenerate the chip. The assay was conducted at 25° C. for all samples. From the sensorgram obtained by the assay, an association rate constant ka (1/Ms) and a dissociation rate constant […] (1/s) were calculated as kinetic parameters. The KD (M) of each antibody for mouse FcRn was calculated on the basis of the parameters. Biacore Evaluation Software (GE Healthcare Japan Corp.) was used in the calculation of each parameter.

mouse FcRn [8] = target: T5, mouse FcRn; experiment: SPR (Biacore), antibody captured by protein L, mouse FcRn as analyte, pH 6.0, 25 C
Protocol: as §2, §3

[9] = target: T1, mouse FcgRII extracellular domain, …; experiment: SPR (Biacore); relative to mIgG1 (the reference itself)
Protocol: as §1

[10] = target: T2, mouse FcgRIII extracellular domain, …; experiment: as above
Protocol: as §1

mouse FcRn [11] = target: T5, mouse FcRn; experiment: as above
Protocol: as §2, §3

B1: MRAH-mIgG1mP3/MRAL-mk1//H54-mIgG1mN3/L28-mk1 (bispecific antibody)
heavy 1: QVQLQESGPGLVRPSQTLSLTCTVSGYSITSDHAWSWVRQPPGRGLEWIGYISYSGITTYNPSLKSRVTMLRDTSKNQFSLRLSSVTAADTAVYYCARSLARTTAMDYWGQGSLVTVSSAKTTPPSVYPLAPGSAAQTNSMVTLGCLVKGYFPEPVTVTWNSGSLSSGVHTFPAVLQSDLYTLSSSVTVPSSTWPSETVTCNVAHPASSTKVDKKIVPRDCGCKPCICTVPEVSSVFIFPPKPKDVLTITLTPKVTCVVVDISKDDPEVQFSWFVDDVEVHTAQTQPREEQFNSTFRSVSELPIMHQDWLNGKEFKCRVNSAAFPAPIEKTISKTKGRPKAPQVYTIPPPKEQMAKDKVSLTCMITDFFPEDITVEWQWNGQPAENYKNTQPIMKTDGSYFVYSKLNVQKSNWEAGNTFTCSVLHEGLHNHHTEKSLSHSPGK
light 1: DIQMTQSPSSLSASVGDRVTITCRASQDISSYLNWYQQKPGKAPKLLIYYTSRLHSGVPSRFSGSGSGTDFTFTISSLQPEDIATYYCQQGNTLPYTFGQGTKVEIKRADAAPTVSIFPPSSEQLTSGGASVVCFLNNFYPKDINVKWKIDGSERQNGVLNSWTDQDSKDSTYSMSSTLTLTKDEYERHNSYTCEATHKTSTSPIVKSFNRNEC
heavy 2: QVQLQESGPGLVKPSETLSLTCAVSGYSISDDQAWSWVRQPPGEGLEWIGYISYSGITNYNPSLKGRVTISRDTSKNQFSLKLSSVTAADTAAYYCARSLARTTAMDYWGEGTLVTVSSAKTTPPSVYPLAPGSAAQTNSMVTLGCLVKGYFPEPVTVTWNSGSLSSGVHTFPAVLQSDLYTLSSSVTVPSSTWPSETVTCNVAHPASSTKVDKKIVPRDCGCKPCICTVPEVSSVFIFPPKPKDVLTITLTPKVTCVVVDISKDDPEVQFSWFVDDVEVHTAQTQPREEQFNSTFRSVSELPIMHQDWLNGKEFKCRVNSAAFPAPIEKTISKTKGRPKAPQVYTIPPPKEQMAKDKVSLTCMITDFFPEDITVEWQWNGQPAENYKNTQPIMDTDGSYFVYSDLNVQKSNWEAGNTFTCSVLHEGLHNHHTEKSLSHSPGK
light 2: DIQMTQSPSSLSASVGDSVTITCQASQDISSYLNWYQQKPGKAPELLIYYGSELHSGVPSRFSGSGSGTDFTFTISSLEAEDAATYYCQQGNSLPYTFGQGTKVEIERADAAPTVSIFPPSSEQLTSGGASVVCFLNNFYPKDINVKWKIDGSERQNGVLNSWTDQDSKDSTYSMSSTLTLTKDEYERHNSYTCEATHKTSTSPIVKSFNRNEC
notes: Product of mouse IgG1-type Fab arm exchange (D399K on one H chain, K409D on the other); formation efficiency 89.2%, so the preparation may hold some homo variant; also called mIgG1mP3/mN3; mP3/mN3
**Q.** How did the “KD fold mFcgRII” value [1] turn out when B1 was run?
**A.** 1.2 fold

**Q.** And the “KD fold mFcgRIII” value [2]?
**A.** 1.2 fold

**Q.** What about the Kd [3] of the same binder?
**A.** 670 nM

**Q.** And the Kd [4]?
**A.** 670 nM

**Q.** Does B1 bind [5]?
**A.** no binding

**Q.** Does B1 bind [6]?
**A.** no binding

**Q.** What about the “fold KD” value (mouse FcRn [7]) of the same binder?
**A.** 1.2 fold

**Q.** What about the Kd (mouse FcRn [8]) of the same binder?
**A.** 2100 nM

B2: MRAH-mIgG1/MRAL-mk1 (antibody)
heavy: QVQLQESGPGLVRPSQTLSLTCTVSGYSITSDHAWSWVRQPPGRGLEWIGYISYSGITTYNPSLKSRVTMLRDTSKNQFSLRLSSVTAADTAVYYCARSLARTTAMDYWGQGSLVTVSSAKTTPPSVYPLAPGSAAQTNSMVTLGCLVKGYFPEPVTVTWNSGSLSSGVHTFPAVLQSDLYTLSSSVTVPSSTWPSETVTCNVAHPASSTKVDKKIVPRDCGCKPCICTVPEVSSVFIFPPKPKDVLTITLTPKVTCVVVDISKDDPEVQFSWFVDDVEVHTAQTQPREEQFNSTFRSVSELPIMHQDWLNGKEFKCRVNSAAFPAPIEKTISKTKGRPKAPQVYTIPPPKEQMAKDKVSLTCMITDFFPEDITVEWQWNGQPAENYKNTQPIMDTDGSYFVYSKLNVQKSNWEAGNTFTCSVLHEGLHNHHTEKSLSHSPGK
light: DIQMTQSPSSLSASVGDRVTITCRASQDISSYLNWYQQKPGKAPKLLIYYTSRLHSGVPSRFSGSGSGTDFTFTISSLQPEDIATYYCQQGNTLPYTFGQGTKVEIKRADAAPTVSIFPPSSEQLTSGGASVVCFLNNFYPKDINVKWKIDGSERQNGVLNSWTDQDSKDSTYSMSSTLTLTKDEYERHNSYTCEATHKTSTSPIVKSFNRNEC
notes: Control with mouse IgG1 H chain constant region and mouse kappa constant region; also called naturally occurring mIgG1
**Q.** With B2 as the binder, how does the Kd [3] read?
**A.** 820 nM

**Q.** What about the Kd [4] of the same binder?
**A.** 790 nM

**Q.** Does B2 bind [5]?
**A.** no binding

**Q.** Does B2 bind [6]?
**A.** no binding

**Q.** And the “KD fold mFcgRII” value [9]?
**A.** 1 fold

**Q.** And the “KD fold mFcgRIII” value [10]?
**A.** 1 fold

**Q.** And the “fold KD” value (mouse FcRn [11])?
**A.** 1 fold

**Q.** What about the Kd (mouse FcRn [8]) of the same binder?
**A.** 2500 nM

B3: MRAH-mIgG1mP4/MRAL-mk1//H54-mIgG1mN4/L28-mk1 (bispecific antibody)
heavy 1: QVQLQESGPGLVRPSQTLSLTCTVSGYSITSDHAWSWVRQPPGRGLEWIGYISYSGITTYNPSLKSRVTMLRDTSKNQFSLRLSSVTAADTAVYYCARSLARTTAMDYWGQGSLVTVSSAKTTPPSVYPLAPGSAAQTNSMVTLGCLVKGYFPEPVTVTWNSGSLSSGVHTFPAVLQSDLYTLSSSVTVPSSTWPSETVTCNVAHPASSTKVDKKIVPRDCGCKPCICTVPEVSSVFIFPPKPKDVLTITLTPKVTCVVVDISKDDPEVQFSWFVDDVEVHTAQTQPREEQFNSTFRSVSELPIMHQDWLNGKEFKCRVNSAAFPAPIEKTISKTKGRPKAPQVYTIPPPKEQMAKDKVSLTCMITDFFPEDITVEWQWNGQPAENYKNTQPIMRTDGSYFVYSKLNVQKSNWEAGNTFTCSVLHEGLHNHHTEKSLSHSPGK
light 1: DIQMTQSPSSLSASVGDRVTITCRASQDISSYLNWYQQKPGKAPKLLIYYTSRLHSGVPSRFSGSGSGTDFTFTISSLQPEDIATYYCQQGNTLPYTFGQGTKVEIKRADAAPTVSIFPPSSEQLTSGGASVVCFLNNFYPKDINVKWKIDGSERQNGVLNSWTDQDSKDSTYSMSSTLTLTKDEYERHNSYTCEATHKTSTSPIVKSFNRNEC
heavy 2: QVQLQESGPGLVKPSETLSLTCAVSGYSISDDQAWSWVRQPPGEGLEWIGYISYSGITNYNPSLKGRVTISRDTSKNQFSLKLSSVTAADTAAYYCARSLARTTAMDYWGEGTLVTVSSAKTTPPSVYPLAPGSAAQTNSMVTLGCLVKGYFPEPVTVTWNSGSLSSGVHTFPAVLQSDLYTLSSSVTVPSSTWPSETVTCNVAHPASSTKVDKKIVPRDCGCKPCICTVPEVSSVFIFPPKPKDVLTITLTPKVTCVVVDISKDDPEVQFSWFVDDVEVHTAQTQPREEQFNSTFRSVSELPIMHQDWLNGKEFKCRVNSAAFPAPIEKTISKTKGRPKAPQVYTIPPPKEQMAKDKVSLTCMITDFFPEDITVEWQWNGQPAENYKNTQPIMDTDGSYFVYSELNVQKSNWEAGNTFTCSVLHEGLHNHHTEKSLSHSPGK
light 2: DIQMTQSPSSLSASVGDSVTITCQASQDISSYLNWYQQKPGKAPELLIYYGSELHSGVPSRFSGSGSGTDFTFTISSLEAEDAATYYCQQGNSLPYTFGQGTKVEIERADAAPTVSIFPPSSEQLTSGGASVVCFLNNFYPKDINVKWKIDGSERQNGVLNSWTDQDSKDSTYSMSSTLTLTKDEYERHNSYTCEATHKTSTSPIVKSFNRNEC
notes: Product of mouse IgG1-type Fab arm exchange (D399R on one H chain, K409E on the other); formation efficiency 89.9%, so the preparation may hold some homo variant; also called mIgG1mP4/mN4; mP4/mN4
**Q.** With B3 as the binder, how does the “KD fold mFcgRII” value [1] read?
**A.** 1.2 fold

**Q.** What about the “KD fold mFcgRIII” value [2] of the same binder?
**A.** 1.2 fold

**Q.** And the Kd [3]?
**A.** 670 nM

**Q.** And the Kd [4]?
**A.** 680 nM

**Q.** Does B3 bind [5]?
**A.** no binding

**Q.** Does B3 bind [6]?
**A.** no binding

**Q.** What about the “fold KD” value (mouse FcRn [7]) of the same binder?
**A.** 1.3 fold

**Q.** What about the Kd (mouse FcRn [8]) of the same binder?
**A.** 1900 nM
